# In patent US20230303666A1 (published 2023):
# Target: SARS-CoV-2 S on pseudotyped lentivirus (pCMV-SARS2deltaC-gp41) (SARS-CoV-2, UniProt P0DTC2 14-1246)
# Assay: cell-based or functional assay
Binder,IC50 of pseudovirus neutralization [nM],"pseudovirus neutralization potency, fold increase against monomeric SR6v15 [fold]",IC50 of neutralization of pseudotyped lentiviral infection [nM]
SR6v15.d (VHH) EVQLVESGGGLVQAGDSLRLSCAASGDSYILWRMGWFRQAPGKEREFVAAISLDGQFTNYADSVRGRFSISADSAKYTVYLQMNSLKPEDTAVYYCAALPFLDYWGQGTQVTVSSEVQLVESGGGLVQAGDSLRLSCAASGDSYILWRMGWFRQAPGKEREFVAAISLDGQFTNYADSVRGRFSISADSAKYTVYLQMNSLKPEDTAVYYCAALPFLDYWGQGTQVTVSS,0.329,> 10,
SR6c3 (VHH) VHH: EVQLVESGGGLVQAGDSLRLSCAASGDCHVLWRMGWFRQAPGKEREFVAAISLDGQFTNYADSVRGRFSISADSAKNTVYLQMNSLKPEDTAVYYCAALPFLDYWGQGTQVTVSS,,,62.7
